Data taken from the DeepSol protein solubility set.

Experiment: soluble on expression in E. coli; label from the status in PepcDB or PDB records

Sequence	soluble on expression in E. coli
MSLSLPPPRRVVLTTPTHFDVEYVINPHMSENVGAVNTDVAWQQWKALRAAYTALDHTPVLVNGQSGLPDMVFCANQTLPFYDPASDSKGVVLSRMHSEQRADEVPYYARFFEEEGYAVDTLPEDLDADFEGMGDALWHPGHHLLWGGYGYRTSPEAYEALGDLLDVPIVALRLVDPDYYHLDTCLCPLDARHALVAPEAFDDAGRALIDALFETVIEVPDHEARHQFACNAHCPDGAHVLIQEGCEGTNAQLRNHDFVPVELDTSEFMKSGGSVFCMKQMIWEGHHHHHH	not soluble
SILEGGGVMNLNPGNNLLHQPPAWTDSYSTCNVSSGFFGGQWHEIHPQYWTKYQVWEWLQHLLDTNQLDANCIPFQEFDINGEHLCSMSLQEFTRAAGTAGQLLYSNLQHLKWNGQCSSDLFQSTHNVIVKTEQTEPSIMNTWKDENYLYDTNYGSTVDLLDSKTFCRAQISMTTTSHLPVAESPDMKKEQDPPAKCHTKKHNPRGTHLWEFIRDILLNPDKNPGLIKWEDRSEGVFRFLKSEAVAQLWGKKKNNSSMTYEKLSRAMRYYYKREILERVDGRRLVYKFGKNARGWRENEN	soluble
MGSDKIHHHHHHMHLGKYIKKYRDTNNLSMAEFAKESGISKAYVSILEKNRDPRNGKEIIPSIPIIKKVSDTIGISFDDLLNSLDENQIVALNETKTEKNLTSSTLQKITSTSSQLEQPRQEKVLSFANEQLEEQNKVVSMFDRKVEETENYITDYVEGLVAAGLGAYQEDNLHMEVKLRADDVPDKYDTIAKVAGNSMEPLIQDNDLLFVKVSSQVDMNDIGIFQVNGKNFVKKLKRDYDGAWYLQSLNKSYEEIYLSENDNIRTIGEVVDIYREN	not soluble
MGSDKIHHHHHHMTDHVIAHAFSYRHASRRKPALVDLTLKISRGERVLLLGASGSGKSTLLAAIAGVLADEDGEHSGELQVSGTPGMVLQDPDSQVISSRVGDDVAFGCENMCVPRDQIWPRVTQALAQVGLDLPLDHPTSELSGGQKQRLALAGVIAMGADIVLLDEPTANLDPDGVREVVSNISRAVETTGATMIVVEHRVSTWLDHVDRIIALGPDSRVLADGPARDVIAKHGRELSELGIWVPENDPQLPAALTPTHSDTAIHARELAVGWNQPLGTYGFDIPAGASTVITGANGKGKSTLLLTLAGLLPAHSGRVEVAHNIARGLHTDPLRWKSKELSSRFGFVFQDPEHQFVAATVREEMRVGLHDHNHLARADLLLERLRLDHLAEANPFTLSGGQKRRLSVATILVNTPDVVFLDEPTFGQDRTTFIELVTLLRELTDAGTTVVSITHDELYRRCLGDKEIAL	not soluble
MDTALYLLPVTLGDTPIESVLPSYNKEIIQGIKHFIVEDVRSARRFLKKVDREIDIDSLTFYPLNKHTSPEDISGYLKPLAGGLSMGVISEAGCPAVADPGADVVAIAQRKNLKVVPLVGPSSIILSVMGSGFSGQSFAFHGYLPIEPGERAKKIKALEQRVYAEHQTQLFIETPYRNNKMVEDILHNCRPQTRLCIAANITCEGEYIRTKTIKEWQGKVPDLTKIPCIFLLYQLEHHHHHH	not soluble
MQQLREGAPADVFISADKKNMDKALADGTVGSSVKVATNSMVMVVPQGNPGKVTSVSDLAGKTVVLCDVQVPCGTISKKLQDANGVEIKAASLESSVSDVLGKVVSGEADAGWVYRTDAAAAGNKVEVIDIPHAQEFENSLYAAVSTHSTSPDEAQKLLDLIVSPKMAQVWKDHGFSPAQ	not soluble
MDDDILGLEDVTASEAFKIIYELSKASKIDADRSDAAKAQFTLLHSTLLQALQAERDLLDQAKALKRQKEEQEAAITGAGGVPGADDIDQLREDVEAALGEAALAQERQQLLQLEVTDLQRQRNDLGARMEELAAEHAAALQPVIAQARGEAAALVDELDEERRRVEAAHGELEDMKSKLAAVQEEIEAMGETKAVERANLVKVDPLPDKARRQSEAVAAILKSVQGQLESMNARYGEHDTQYKTAAEREQQLTEEHTKMLTALERGRVQVESKARHADDVRKDVELASIEADKILADQVELDLRVKNLALELKAESDHLNRRQREKELMLRQYRVADQQLKDARDMLPNLKFQVEQMHRDVNTLEARRRAQSRELSDVKRELDIQMAAFLHEEADGKEKVALFQLTYKEVAALEAELAALKREEAERDTILRDLGSQRDRVALAIAQKLSKVKDVQMTSRIKEVELAELKKIRKEVGRRIRDFEKLYDLVKNQRNKFVNLIQAASQSTTEMKDKLKVLQNELDILQNEVGIKDKLLQQQHTQHAANIAERDQLRVELGRLGMVFRDKQAVVDEQIAEVDKLNAIINGCEKEMLRLKKQYELVIEARNYTGIMLIDRNDELCVLYEKANILDEVIKSGQLELMRREDEARLLRLEVGELERSIGVTRRLVPSVPLLDNDVAALQKALFEARREAEALSLALENPSNQGRWRLLEGKIPDREELSAKIQALEERLNDKKEQLLEKELILEEITSLSDKLRVQAAEGRADTLELAQRVNEYQSKLRAVTRKIMATVSELSMYQASALKLGAEKEELEGAVSLASQRLEAGEPPTDDAEREWYRLERERHTVDAMAEERRAVAAALDARVAEVQSTAEPRPNAYIPEQLGIPKPYGSFAPFKPQEAGSTMRHIRKPSPKEVVI	not soluble
MGSDKIHHHHHHMHWRGEYSCLSDSWRVSTQEDGGRLQMLTFRSARPEDEDALYAISLATGDAGQDATPLYNDGRMVGHIYSVPYLRLWPDAVFVAEDEEGVCGYIAGALDTVLHEQRLEQEWWPHLRALYPDPGGDPQTWDADQRRAHFIHHPRNTPSWLTDPFPAHIHMNLLPRTQGKGGGTRLLSRWLDMARQNNVYGIHLGASERNHAGMRFWETRGFKHLDSHETPGSVWFGMALE	not soluble
MWKTYTRYQAVYKKAQWPLTLYFDGECPLCAREIKVLRARAAADRLLFVDISDDAFDASLLGLTLPQMESSLHARFDDGTWVTGLDATLWSWRAAGLGKWVAPLSWPILRPLFTVLYRLFCRFRPHLAWLPHPDGGRRCSKGSCTVAESVVMKSEASAEKKIS	not soluble
MAHHHHHHMFYMFLTRNDHQDRRRESPPPTPKKHGASFLRRIHLGEFSGRTICISWETLVEKHEWRDCAKETLLALSSNMIVYLMCHISNANEKGKVLSMVKDIPQLARHNILFCETEKGYEAFSRQIKPAILVTHDSAQAEFLSLVLPNVVLVGSSATGSAMTSISSLSELLF	not soluble
MAWAPPMAKRRSAPATQAAARTPGWTLGGLATILKGFSGQVQFVPEDYPVWLNRVLAEAQTGRGTVGVLGGLHGDFPPLVSRGLLEPLDGLYARLQDRGFPQAFVELGRMGTPNQQYLPWMQATYVMVARKEALKYLPPGADLNALTYEDLKNWAKAIQEATGQRRLGFPAGPGGLIHRFLQGYLYPSYTGSQVRRFKSPEAEAMWRDFRELWRYVNPRSTAYEFMQEPLLSGEVWIAWDHTARLKDALVQRPQDFVAFPAPAGPKGRGFMPVVAGLAIPKTAPDKRAAEALVDYLTRPEVQLLTLKEVGFFPVVRARYGEDLPEGIRLLAEAVSAQSSAKDALPSLLPVGLGDKGGEFNKVYRDAFTRIVLRGEEIRRALDLEAQNLARILRETGAPCWPPDAPSTGACPVE	soluble
GEINGVSGIFPASSVEVIKQLPQPPPLCRALYNFDLRDKDKSENQDCLTFLKDDVITVISRVDENWAEGKLGDKVGIFPILFVEPNVSARHLLQNKGHQLSRTRHLSLMSSPSRGKATNTSSLRKSPGSRRKGSGQFSMTTALNTLNRTVHSPEGHQMVEISTPMLISSNSPSVLTQHGDKADFPTSSTGQVSSSQPAPASPGHSTAMVSVPSSQQHLSNNMFVALHTYSAHRPEELDLQKGEGIRVLGKYQDGWLKGLSLLTGRTGIFPSDYVIPVFSSTARKTSSFPDSRSPTVCTTWALSTSSVSSQGSFAEGDPRQSGPFKSVFVPTAVVNPSRSTPGPGSSGQGSLRKVRSSMRKNGSLQRPVQSGIPTFMVGSLRCSPTMVIRPQRFQFYPPQGMTPSPTPIMVEMGSKSIYTGEPALTCINRGSKTRIHSAGNSIIMEGKETPIKSEPPPKPPASAPPSILVKPENSKNGTEKQVKTVRFQNYSPPPTKHSASSPTSGKHDHPATLKGSQHEAVSSGGEMTILFAHRSGCHSGQQTDLRRKSAFGKTMPLLSTASATQTLFPSK	soluble
MKQGTMNILFFVLKTKLLKNGEAPVLMRITINGDYDDVRIQRSVPLNLWNAAKGCSKGRDRASVALNAYIAELHARALEKHKELVLEQALITPKLILKRVFGKDTEMRTLLGTMREGIKEMETLAGIDYSPVTINRYKNVVKKLQLLIPSYYGKEDVTFHELTPEFIRAFDIYLKTEAGLCRNTIVRYMKCFKKFTNMALAKEWMRKNPFYGYKMEQDETDPVFLTYDELQTVMKKKFTIPRLELVRDVFVFACFTGLAFSDVASLNKENLVQDNLGDWWIRKGRVKLEHRRKASSISNIPLLPVPLAILEKYKEHPTCIKKGCCLPVMCNQKMNSYLKEIADFCGIKKNLTTHVARHTFGTTVTLANNVPLQDVSVMLGHASTRMTQHYARVMNSSLKEAMNTVKERLAQ	not soluble
MGKFLVQFWGVRGLIPTPSSNTSRYGGNTACVEMQVAGKRLIFDGGTGLRILGKAWQHLQQPLEAHLFFTNSQSNRIQGFPFFAPAFIAGNCFHIYGGAASNGASIKQCLCDQMLQPHFPYPLQVMQSELQFYPLTPDSEVKLDDVTIRTALINQTQRSIGYRVTWQEYSVAYVTDLNMSAEQGEREQVLQIIQDVDLLIANATYTPPTSHDHESVDLLWQAAVEMAQKAGVRKLIISHHHPDDHDDFLDQVEKEVQSTFSDALLACEGLALPVFLEHHHHHH	not soluble
MSLGRHSDNSLQESANHTVLLTSPTNTIPKDSRQRSQQFMQNLQDEICTALEQLDGKASFHQDHWERAEGGEGRTRVIREGRVFEQGGVNFSAVWGNSLPASILAQRPEAAGHEFFATGTSMVLHPRNPYVPTVHLNYRYFEAGPIWWFGGGADLTPYYAFKEDAVHFHQTLKNACDVHNPEYYPTFKRWCDEYFYLRHREEQRGIGGIFFDYQDASGKLYVESQTDSSVAIYSQKVGNVARNWEDIFAFVQSCGQAFLPAYLPIVERRQGIEYGDRQRNFQLYRRGRYVEFNLVYDRGTVFGLQTKGRTESILMSLPPLARWEYCYEPEAGSPEAELTEVFLQPRDWVEGHHHHHH	not soluble
MGSDKIHHHHHHMDTKAFKRSLQHSENYNRKGFGHQAEVATQLQSEYQSNLIQEIRDRNYILQRGDVTIRLAQAFGFCWGVERAVAMAYETRQHFPTEHIWITNEIIHNPSVNQRMQEMEVEFIPIEGKNKDFSVVGTGDVVILPAFGASVQEMQILHDKGCKIVDTTCPWVSKVWNTVEKHKKIDYTSIIHGKYKHEETVATSSFAGKYLIVLNLQEAQYVADYIINGGNREEFLTKFAKACSAGFDPDRDLERVGIANQTTMLKDETEQIGKLFERTMLQKYSPIELNQHFQSFNTICDATQERQDAMLELVEHNLNLMVVIGGFNSSNTTQLQQIAFERRIPSYHIDTVERIKSGDSIEHRQLNGQLITTENWLPDGEIVVGITSGASTPDKVVEDVIEKIFAVKATAALV	not soluble
MSKPIEIEIRRAPVLGSSMAYRETGAQDAPVVLFLHGNPTSSHIWRNILPLVSPVAHCIAPDLIGFGQSGKPDIAYRFFDHVRYLDAFIEQRGVTSAYLVAQDWGTALAFHLAARRPDFVRGLAFMEFIRPMPTWQDFHHTEVAEEQDHAEAARAVFRKFRTPGEGEAMILEANAFVERVLPGGIVRKLGDEEMAPYRTPFPTPESRRPVLAFPRELPIAGEPADVYEALQSAHAALAASSYPKLLFTGEPGALVSPEFAERFAASLTRCALIRLGAGLHYLQEDHADAIGRSVAGWIAGIEAVRPQLAAVD	soluble
